Measurements as given in patent US20170368169A1 (MARENGO THERAPEUTICS, published 2017).

Legend:
[1] = biological target: T1, human PD1L1 (generated from SEQ ID NO: 178) (human); test: ELISA on plate-bound antigen, molecule titrated 1 uM-1 pM
T1 construct: Antigen construct made in house; also called hPD1L1; human PDL1

[2] = biological target: T2, human mesothelin (generated from SEQ ID NO: 181) (human); test: as above
T2 construct: Antigen construct made in house; BirA was co-transfected when biotinylation was required; also called hMeso 1-7; hMesothelin
T2 chain: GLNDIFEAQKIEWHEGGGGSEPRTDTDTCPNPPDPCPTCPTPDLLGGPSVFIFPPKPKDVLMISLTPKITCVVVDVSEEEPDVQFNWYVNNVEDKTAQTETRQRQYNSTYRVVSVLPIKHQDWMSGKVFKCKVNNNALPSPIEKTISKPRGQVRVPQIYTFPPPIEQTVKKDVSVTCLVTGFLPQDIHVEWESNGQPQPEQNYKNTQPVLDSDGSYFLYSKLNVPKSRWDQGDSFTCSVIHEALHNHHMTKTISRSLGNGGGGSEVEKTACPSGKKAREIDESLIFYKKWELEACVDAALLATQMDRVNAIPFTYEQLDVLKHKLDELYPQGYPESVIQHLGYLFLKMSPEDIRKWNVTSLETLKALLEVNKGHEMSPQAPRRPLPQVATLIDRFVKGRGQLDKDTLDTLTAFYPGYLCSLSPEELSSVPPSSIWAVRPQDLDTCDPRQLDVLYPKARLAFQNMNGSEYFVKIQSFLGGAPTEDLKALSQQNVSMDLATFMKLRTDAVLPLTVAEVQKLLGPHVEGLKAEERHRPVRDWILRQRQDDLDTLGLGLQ

B1: Multispecific molecule 5 (bispecific antibody, human IgG1, kappa, lambda)
heavy 1: not shown
light 1: not shown
heavy 2: EVQLLESGGGLVQPGGSLRLSCAASGFTFSSYIMMWVRQAPGKGLEWVSSIYPSGGITFYADTVKGRFTISRDNSKNTLYLQMNSLRAEDTAVYYCARIKLGTVTTVDYWGQGTLVTVSSASTKGPSVFPLAPSSKSTSGGTAALGCLVKDYFPEPVTVSWNSGALTSGVHTFPAVLQSSGLYSLSSVVTVPSSSLGTQTYICNVNHKPSNTKVDKRVEPKSCDKTHTCPPCPAPELLGGPSVFLFPPKPKDTLMISRTPEVTCVVVDVSHEDPEVKFNWYVDGVEVHNAKTKPREEQYNSTYRVVSVLTVLHQDWLNGKEYKCKVSNKALPAPIEKTISKAKGQPREPQVCTLPPSREEMTKNQVSLSCAVKGFYPSDIAVEWESNGQPENNYKTTPPVLDSDGSFFLVSKLTVDKSRWQQGNVFSCSVMHEALHNHYTQKSLSLSPGK
light 2: QSALTQPASVSGSPGQSITISCTGTSSDVGGYNYVSWYQQHPGKAPKLMIYDVSNRPSGVSNRFSGSKSGNTASLTISGLQAEDEADYYCSSYTSSSTRVFGTGTKVTVLGQPKANPTVTLFPPSSEELQANKATLVCLISDFYPGAVTVAWKADGSPVKAGVETTKPSKQSNNKYAASSYLSLTPEQWKSHRSYSCQVTHEGSTVEKTVAPTECS
notes: Mesothelin targeting arm and PDL1 targeting arm
[1]
  EC50: 0.00025 µM
[2]
  EC50: 0.163 µM
